16 molecules from patent publication US20260234247A1 (published 2026) can be followed below.

Experiment [1] addresses T1, human LILRB1 expressed on CHOK1 cells (CHOK1-hLILRB1) (human, UniProt Q8NHL6 24-650).
T1 construct: whole, on cells; also called CHOK1-LILRB1
The experiment can be described thus: FACS binding to CHOK1-hLILRB1 cells.

The target in experiment [2] is T2, human LILRB2 expressed on CHOK1 cells (CHOK1-hLILRB2) (human, UniProt Q8N423 22-597).
T2 construct: whole, on cells; also called CHOK1-LILRB2
T2 sequence (Q8N423 22-597): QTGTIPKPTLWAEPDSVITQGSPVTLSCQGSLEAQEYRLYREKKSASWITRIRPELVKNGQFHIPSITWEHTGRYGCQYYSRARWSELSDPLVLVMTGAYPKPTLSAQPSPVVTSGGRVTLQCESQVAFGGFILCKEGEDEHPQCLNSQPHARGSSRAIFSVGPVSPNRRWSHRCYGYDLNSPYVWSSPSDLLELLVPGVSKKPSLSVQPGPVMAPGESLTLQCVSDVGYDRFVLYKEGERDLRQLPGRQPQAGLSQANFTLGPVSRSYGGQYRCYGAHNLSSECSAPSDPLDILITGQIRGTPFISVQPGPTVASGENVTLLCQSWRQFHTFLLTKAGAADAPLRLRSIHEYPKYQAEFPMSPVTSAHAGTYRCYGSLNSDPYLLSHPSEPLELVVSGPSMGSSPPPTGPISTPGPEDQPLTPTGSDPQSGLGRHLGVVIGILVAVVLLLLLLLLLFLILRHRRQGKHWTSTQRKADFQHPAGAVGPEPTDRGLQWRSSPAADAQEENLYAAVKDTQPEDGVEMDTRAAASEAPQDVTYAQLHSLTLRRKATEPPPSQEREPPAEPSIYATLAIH
The experiment can be described thus: FACS binding to CHOK1-hLILRB2 cells. A general note: A flow cytometer gives signals particle by particle.

The target in experiment [3] is T2, human LILRB2 expressed on CHOK1 cells …. Briefly: cell based RBA, flow cytometry: blocking of HLA-G binding to CHOK1-hLILRB2 cells.

T1 sequence (Q8NHL6 24-650): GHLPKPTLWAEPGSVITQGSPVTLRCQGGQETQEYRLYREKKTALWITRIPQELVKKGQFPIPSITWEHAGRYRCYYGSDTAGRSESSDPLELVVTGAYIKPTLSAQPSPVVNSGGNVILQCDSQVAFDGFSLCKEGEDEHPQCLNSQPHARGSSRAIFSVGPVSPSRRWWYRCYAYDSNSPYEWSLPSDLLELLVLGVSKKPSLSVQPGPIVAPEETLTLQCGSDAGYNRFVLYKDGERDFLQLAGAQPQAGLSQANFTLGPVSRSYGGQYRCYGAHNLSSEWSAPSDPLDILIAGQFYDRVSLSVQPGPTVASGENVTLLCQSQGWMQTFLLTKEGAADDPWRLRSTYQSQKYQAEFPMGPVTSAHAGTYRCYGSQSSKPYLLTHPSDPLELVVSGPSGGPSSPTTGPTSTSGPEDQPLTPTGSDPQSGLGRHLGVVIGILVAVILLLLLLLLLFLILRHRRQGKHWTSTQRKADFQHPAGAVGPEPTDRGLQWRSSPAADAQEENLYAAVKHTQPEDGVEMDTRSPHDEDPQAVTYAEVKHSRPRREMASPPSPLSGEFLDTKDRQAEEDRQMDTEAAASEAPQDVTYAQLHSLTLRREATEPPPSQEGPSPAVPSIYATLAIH

B1: LK-RB2-29 (antibody, human IgG4 S228P, kappa, V domains shown)
VH: QVQLQQSGAELARPGASVKLSCKASGYTFTSYWMQWVKQRPGQGLEWIGAIYPGDGDTRYTQKFKGKATLTADKSSSTAYMQLSSLASEDSAVYYCARGYYGSSYADYFDYWGQGTTLTVSS
VL: DIQMTQSPASLSASVGETVTITCRASGNIHNYLAWYQQKQGKSPQLLVYNAKTLADGVPSRFSGSGSGTQYSLKINSLQPEDFGSYYCQHFWSTPPTFGGGTKLEIKR
Turning to B1, the binding result in experiment [1] and in experiment [2] was “no binding” throughout.

B2: LK-RB2-19 (antibody, human IgG4 S228P, kappa, V domains shown)
VH: QVQLQQPGAELVKPGASVKLSCKASGYTFTSYWMHWVKQRPGQGLEWIGMIHPNSGGTNYNEKFKSKATLTVDKSSSTAYMQFSSLTSEDSAVYYCARCTVVALYYALDYWGQGTSVTVSS
VL: QIVLSQSPAILSASPGEKVTMTCRATSRVSYIHWFQQKPGSSPKPWIYVTSNLASGVPARFSGSGSGTSYSLTISKLEAEDVATYYCQQWSTNPLTFGAGTKLELKR
In the case of B2, the EC50 in experiment [3] amounted to 50.3 nM; in experiment [1] it was 7.06 nM; in experiment [2] it was 2.34 nM. In addition, the “Top Inhibition” value in experiment [3] was 18.1%.

B3: LK-RB2-14 (antibody, human IgG4 S228P, kappa, V domains shown)
VH: QVQLKQSGPGLVQPSQSLSITCTVSGFSLTSYGVHWVRQSPGKGLEWLGVIWRGGSTDYNAAFMSRLSITKDNSKSQVFFKMNSLQADDTAIYYCAKNEGDSTVVAWYFDVWGTGTTVTVSS
VL: DIQMTQTTSSLSASLGDRVTISCSASQGISNYLNWFQQKPDGTVKLLIYYTSSLHSGVPSRFSGSGSGTDYSLTISNLEPEDIATYYCQQYSKLPLTFGAGTKLELKR
As for B3, in experiment [3], a half-maximal effect (EC50) was put at 0.231 nM and the “Top Inhibition” value amounted to 73.8%. Further, the binding result in experiment [1] is listed as “no binding”. Moreover, the 50% effective concentration (EC50) in experiment [2] amounted to 0.29 nM.

B4: LK-RB2-35 (antibody, human IgG4 S228P, kappa, V domains shown)
VH: EVQLQQSGPELVKPGASVKISCKASGYTFTDYNMHWVKQSHGKSLEWIGSIYPYNGGSDYNQKFKSKATLTVDNSSSTAYMELRSLTSEDSAVYYCASELTGLYAMDYWGQGTSVTVSS
VL: DIVMTQSPATLSVTPGDRVSLSCRASQSISDYLHWYQQKSHESPRLLIKYASQSISGIPSRFSGSGSGSDFTLSINSVEPEDVGVYYCQTGHSFPYTFGGGTKLEIKR
As for B4, in experiment [3], the EC50 stood at 0.203 nM and the “Top Inhibition” value was determined as 88.4%. Further, the binding result in experiment [1] is on record as “no binding”. Also, the EC50 in experiment [2] was determined as 0.18 nM.

B5: LK-RB2-3 (antibody, human IgG4 S228P, kappa, V domains shown)
VH: QLQLQQSDAELVKPGASVKISCKVSGYSFTDHTIHWMKQRPEQGLEWIGYIYPRDGSTKENEKFTGKATLTADKSSSTAYMQLTSLTSEDSAVYFCTGSGFDYWGQGTSLTVSS
VL: DIKMTQSPSSMYASLGERVTITCKASQDIKSYLSWFQQKPGKSPKTLIYRANRLVDGVPSRFSGSGSGQDYSLTINSLEYEDMEIYYCLQYDEFPYTFGGGTKLEIKR
On to B5, for which, in experiment [3], the EC50 was found to be 0.946 nM and the “Top Inhibition” value was 73.2%. In addition, the binding result in experiment [1] is given as “no binding”. This molecule came in with an EC50 in experiment [2] of 0.4 nM.

B6: LK-RB2-1 (antibody, human IgG4 S228P, kappa, V domains shown)
VH: QIQLVQSGPELKKPGETVKISCKASGYTFTTYGMSWVKQAPGKGLKWMGWINTYSGVSTYADDFKGRFAFSLETSASTAYLQINNLKNEDTATYFCARRYDYDGYAMDYWGQGTSVTVSS
VL: DIVMSQSPSSLAVSVGEKVTMSCKSSQSLLFSSNQKNYLAWYQQKPGQSPKLLIYWASTRESGVPDRFTGRGSGTDFTLTISSVKTEDLAVYYCQQYDTYPPTFGGGTKLEIKR
In the case of B6, the half-maximal effective concentration (EC50) in experiment [3] was 0.323 nM; in experiment [2], 0.24 nM. In experiment [3], the “Top Inhibition” value amounted to 73.7%. Also, the binding result in experiment [1] was “no binding”.

B7: LK-RB2-22 (antibody, human IgG4 S228P, kappa, V domains shown)
VH: QIQLVQSGPELKKTGETVKISCKASGYTFTTYGMSWVKQAPGKGLKWMGWINIYSGVPTYADDFKGRFAFSLETSASTAYLQINNLKNEDTATYFCARRADYDGYYFDYWGQGTTLTVSS
VL: NIVMTQTPKFLLVSAGDRVTITCRASQSVTNDVAWYQQRPGQSLKLLIYYASNRYTGVPDRFTGSGYGTDFTFTISTVQAEDLAVYFCQQGYSSPFTFGSGTKLEIKR
In the case of B7, the half-maximal effective concentration (EC50) was determined as 0.112 nM in experiment [3], 45.3 nM in experiment [1] and 0.22 nM in experiment [2]. Also, the “Top Inhibition” value in experiment [3] is 71.1%.

B8: LK-RB2-23 (antibody, human IgG4 S228P, kappa, V domains shown)
VH: QIQLVQSGPELKKPGETVKISCKASGYTFTTYGMSWVKQAPGKGLKWMGWINIYSGVPTYADDFKGRFAFSLETSASTAYLQINNLKNEDTATYFCARRGDYDGYYFDYWGQGTTLTVSS
VL: NIVLIQSAATLSVTPGDSVSLSCRASQSLSNGLHWYQQKSHESPRLLIKYGSQSISGIPSRFSGSGSGTDFTLSINSVETEDFGMYFCQQSDSWPHTFGSGTKLEIKR
Turning to B8, the results for the EC50 in experiment [3], in experiment [1] and in experiment [2] were 0.198 nM, 65.5 nM and 0.26 nM, respectively. Besides, the “Top Inhibition” value in experiment [3] is 71.2%.

B9: LK-RB2-21 (antibody, human IgG4 S228P, kappa, V domains shown)
VH: EVQLVESGGDLVKPGGSLKLSCAASGFTFSSYGMSWVRQTPDKRLEWVATISSGGSYTYYPDSLKGRFTISRDNAKSTLYLQMSSLKSEDTAKYYCARPYYDYIFYAIDYWGQGTSVTVSS
VL: DIQMNQSPSSLSASLGDTITITCHASQNINVWLSWYQQKPGNIPKLLIYKASNLHTGVPSRFSGSGSGTGFTLTISSLQPEDIATYYCQQGQSYPLTFGGGTKLEIKR
Turning to B9, the half-maximal effective concentration (EC50) in experiment [3] turned out to be 1.61 nM; in experiment [2], 2.28 nM. The “Top Inhibition” value in experiment [3] worked out at 62.4%. The binding result in experiment [1] is “no binding”.

B10: LK-RB2-33 (antibody, human IgG4 S228P, kappa, V domains shown)
VH: EVQLQQSGVELVRPGALVKLSCKASGFNIKDYYMHWVKQRPEQGLEWIGWIDPEKGDTIYGPKFQGKASITADTSSNTAYLQLSSLTSEDTAVYYCSRGPNYGSSYAFAYWGQGTLVTVSA
VL: DVVMTQSHKFMSTSVGDRVTITCKASQDVSNAVAWYQQKPGQSPKLLIYSASYRYTGVPDRFTGSGSGTDFTFTISSMQAEDLAVYYCQQHYSLPWTFGGGTKLEIKR
Consider B10, for which, in experiment [3], a half-maximal effect (EC50) was put at 1.87 nM and the “Top Inhibition” value stood at 90%. The binding result in experiment [1] is given as “no binding”. Also, a half-maximal effect in experiment [2] (EC50) was put at 0.91 nM.

B11: LK-RB2-4 (antibody, human IgG4 S228P, kappa, V domains shown)
VH: EVQLVESGGDLVKPGGSLKLSCAASGFTFSNYGMSWVRQTPDKRLEWVATISSGGSYTFYPDSVKGRFTISRDNAKNTLYLQMSSLKSEDTALYYCARDYYYGKTIEGYFDYWGQGTTLTVSS
VL: DIQMTQTTSSLSASLGDRVTISCRANQDISNYLNWYQQKPDGTVKLLIYYTSRLHSGVPSRFSGSGSGTDYSLTISDLEQEDIATYFCQQGNTLPWTFGGGTKLEIKR
Consider B11, for which, in experiment [3], the EC50 is 1.71 nM and the “Top Inhibition” value is 65.2%. In addition, in experiment [1], the binding result is “no binding”. For the same molecule, it took 1.61 nM to reach a half-maximal effect in experiment [2] (EC50).

B12: LK-RB2-2 (antibody, human IgG4 S228P, kappa, V domains shown)
VH: DVKLEESGEGLVKPGGSLKLSCAASGFTFSSYAMSWVRQTPEKRLEWVAYISSGGDYFHYADTVKGRFTISRDNARNTLYLQMSSLKSEDTAMYYCTREGAHYDSSYLAWFAHWGQGTLVTVSA
VL: DIQMTQSPASLSVSVGETVTITCRASENIYSNLAWYQQRQGKSPQLLVYAATNLADGVPSRFSGSGSGTQYSLKINSLQSEDFGSYYCQQFWDNPLTFGAGTKLELKR
With B12, in experiment [3], the response was half-maximal at 0.134 nM (EC50) and the “Top Inhibition” value was 74.5%. Moreover, in experiment [1], the binding result is on record as “no binding”. This molecule also displayed an EC50 in experiment [2] of 0.25 nM.

B13: LK-RB2-30 (antibody, human IgG4 S228P, kappa, V domains shown)
VH: EVQLVESGGGLVQPGGSLKLSCAASGFTFNTDGMSWVRQTPDKRLELVAIINSNGGSTYYPDSVKGRFTISRDNAKNTLYLQMSSLKSEDTAMYYCAREGSYGSWFAYWGQGTLVTVSA
VL: DIQMTQSPASLSVSVGETVTITCRASENINNNLAWYHQKQGKSPQLLVYAATNLADGVPSRFSGSGSGTQYSLKINSLQSEDFGSYYCQHFWGTPFTFGGGTKLEIKR
Consider B13, for which the binding result in experiment [1] and in experiment [2] was “no binding” each time.

B14: LK-RB2-38 (antibody, human IgG4 S228P, kappa, V domains shown)
VH: EVKLVESGGGLVQPGGSLKLSCAASGFSFSDYYMYWVRQTPEKRLEWVAYISNGGGNTYYPDTVKGRFTISRDNAKNSLYLQMSRLKSEDTGMYYCARDREDWYFDVWGTGTTVTVSS
VL: DIVMTQSHTFMSTSVGDRVSITCKASQDVSTAVAWYQQKPGQSPKLLIYWASTRHTGVPDRFTGSGSGTDYTLTISSVQAEDLALYYCQQHYSTPRTFGGGTKLEIKR
With B14, the binding result in experiment [1] and in experiment [2] was “no binding” in each case.

B15: LK-RB2-42 (antibody, human IgG4 S228P, kappa, V domains shown)
VH: EFQLQQSGPELVKPGASVKISCKASGYSFTDYNMNWVKQSNGKSLDWIGIINPKYGTTAYNQKLRDKATLTVDQSSSTAYMQLNSLTSEDSAVYYCASLNWDEGFAYWGQGTLVTVSP
VL: DVLMTQTPLSLPVSLGDQASISCRSSQSIVHSNGNTYLEWYLQKPGQPPKLLIYKVSNRFSGVPERFSGSGSGTDFTLKINRVEAEDLGVYYCFQGSLVPPTFGGGTKLEIKR
Consider B15, for which the binding result in experiment [1] and in experiment [2] was “no binding” in each case.

B16: LK-RB2-36 (antibody, human IgG4 S228P, kappa, V domains shown)
VH: QVQLQQSGAELVRPGASVKMSCKASGYTFTNYWIGWAKQRPGHGLEWIGDIYPGGTYTGYNEKFKGKATLTADKSSSTAYMQFSSLTSEDSAIYYCARRMDYDGYAMDYWGQGTSVTVSS
VL: DIVLTQSPASLSVTPGDSVSLSCRASQSISNNLHWYQQKSHESPRLLIKYASQSISGIPSRFSGSGSGTDFTLSINSVETEDFGMYFCQQSNSWPLTFGAGTKLELKR
Turning to B16, in experiment [3], a half-maximal effect (EC50) was put at 0.506 nM and the “Top Inhibition” value worked out at 80.6%. In addition, the binding result in experiment [1] is “no binding”. The EC50 in experiment [2] was determined as 0.72 nM.

One may read the EC50 as the midpoint of the concentration-response curve. Lower therefore signals a more potent agent.
